Data set [1] addresses T1, SmcR (Vibrio vulnificus ATCC 27562, UniProt Q9L8G8 1-205).
T1 sequence: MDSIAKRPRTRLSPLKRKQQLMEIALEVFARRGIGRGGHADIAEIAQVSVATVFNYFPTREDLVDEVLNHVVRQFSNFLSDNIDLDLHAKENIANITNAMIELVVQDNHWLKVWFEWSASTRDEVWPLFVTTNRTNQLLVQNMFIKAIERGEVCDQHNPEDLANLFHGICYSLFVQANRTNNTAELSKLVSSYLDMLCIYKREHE
The data set can be described thus: EMSA. In general terms: A gel shift assay detects complexes by their altered migration in electrophoresis.

Data set [2] concerns the target T2, LuxR (Vibrio campbellii BB120, UniProt P21308 1-205).
T2 sequence: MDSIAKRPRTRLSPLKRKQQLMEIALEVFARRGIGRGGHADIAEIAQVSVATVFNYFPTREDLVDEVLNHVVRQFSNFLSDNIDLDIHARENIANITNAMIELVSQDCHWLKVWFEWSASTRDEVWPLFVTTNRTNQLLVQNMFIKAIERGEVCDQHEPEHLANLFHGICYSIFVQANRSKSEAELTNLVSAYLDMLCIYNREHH
The data set can be described thus: EMSA.

B1: vvpE promoter (AB324/AB325) (dsDNA)
DNA 1: ATAAATCAAATTTGTAACTTTATTTCTGAGATGACTGTCCCATTTATCTTATTGATAAATCTGCGTAAAAAAGAAAAAGCACAATTTTATTACTAGTGTTT
DNA 2: AAACACTAGTAATAAAATTGTGCTTTTTCTTTTTTACGCAGATTTATCAATAAGATAAATGGGACAGTCATCTCAGAAATAAAGTTACAAATTTGATTTAT
As for B1, the binding result in data set [1] is “binds”.

B2: luxC promoter site B (JDN54/JDN55) (dsDNA)
DNA 1: TTACTTATTTATAGTGTTACAAATAACATTA
DNA 2: TAATGTTATTTGTAACACTATAAATAAGTAA
With B2, the binding result in data set [2] was “binds”.

These data come from paper doi:10.1101/2021.04.14.439868.
